Laboratory results: the supplement of paper PMC10065799, “High-throughput profiling of sequence recognition by tyrosine kinases and SH2 domains using bacterial peptide display” (eLife, 2023)

Tests used:
EPHB2 = EPHB2 (UniProt P29323); test: phosphorylation enrichment, bacterial display (enrichment ratio); higher = better substrate or ligand; peptides without Tyr show the background
Fyn = Fyn (UniProt P06241); test: as above
c-Abl (mouse) = test: as above
AncSZ = test: as above
FGFR3 = FGFR3 (UniProt P22607); test: as above
Fes = Fes (UniProt P07332); test: as above
MERTK = MERTK (UniProt Q12866); test: as above
Hck = Hck (UniProt P08631); test: as above
EPHB1 = EPHB1 (UniProt P54762); test: as above
Jak2 = Jak2 (UniProt O60674); test: as above
c-Src = test: as above
FGFR1 = FGFR1 (UniProt P11362); test: as above
Fer (mouse) = test: as above
c-Src SH2 = test: SH2 binding enrichment of the phosphorylated peptide, bacterial display (enrichment ratio); higher = better substrate or ligand; peptides without Tyr show the background
Grb2 SH2 = Grb2 SH2 (UniProt P62993); test: as above
SHP2-C SH2 = test: as above
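Wherever SH2 binding enrichment of the phosphorylated peptide, bacterial display is given: peptide library displayed on the E. coli surface as eCPX fusions, selected cells deep-sequenced, score is each peptide's frequency after selection divided by its frequency in the input.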
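Wherever phosphorylation enrichment, bacterial display is given: 11-residue human phosphosite peptides and single-mutation variants displayed on the E. coli surface, counted by deep sequencing, each peptide's frequency after selection divided by its frequency in the unselected input library; frequency after pTyr selection over input frequency; kinase dosed for 20-30% of maximal phosphorylation in three min.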

Chain of MERTK (Q12866 whole entry, looked up): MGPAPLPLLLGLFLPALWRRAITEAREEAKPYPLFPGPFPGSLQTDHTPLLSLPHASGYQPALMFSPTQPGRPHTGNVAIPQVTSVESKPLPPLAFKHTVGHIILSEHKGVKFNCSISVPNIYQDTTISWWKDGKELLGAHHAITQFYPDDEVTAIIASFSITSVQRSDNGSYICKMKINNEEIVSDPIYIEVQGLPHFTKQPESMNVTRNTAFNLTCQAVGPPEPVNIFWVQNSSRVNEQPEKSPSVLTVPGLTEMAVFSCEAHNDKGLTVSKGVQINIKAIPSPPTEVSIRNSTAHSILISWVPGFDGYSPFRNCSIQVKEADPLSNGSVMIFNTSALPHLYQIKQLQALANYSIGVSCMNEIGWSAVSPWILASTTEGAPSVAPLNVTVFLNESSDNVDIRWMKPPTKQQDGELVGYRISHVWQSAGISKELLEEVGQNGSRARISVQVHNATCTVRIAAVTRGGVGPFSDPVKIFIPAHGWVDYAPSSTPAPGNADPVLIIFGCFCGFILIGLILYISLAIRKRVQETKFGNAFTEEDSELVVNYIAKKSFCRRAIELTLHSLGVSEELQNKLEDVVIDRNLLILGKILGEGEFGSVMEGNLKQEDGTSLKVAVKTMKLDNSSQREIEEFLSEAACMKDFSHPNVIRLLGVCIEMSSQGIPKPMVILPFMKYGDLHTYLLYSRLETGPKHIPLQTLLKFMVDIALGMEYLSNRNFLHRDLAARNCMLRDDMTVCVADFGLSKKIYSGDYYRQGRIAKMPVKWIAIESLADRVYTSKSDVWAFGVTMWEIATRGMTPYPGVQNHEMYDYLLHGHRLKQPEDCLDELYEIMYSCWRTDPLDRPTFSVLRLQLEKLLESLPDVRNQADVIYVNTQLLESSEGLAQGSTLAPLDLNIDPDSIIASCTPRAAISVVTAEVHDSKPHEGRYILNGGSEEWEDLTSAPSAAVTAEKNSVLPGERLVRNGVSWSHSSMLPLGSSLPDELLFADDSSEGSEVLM
Chain of Fes (P07332 whole entry, looked up): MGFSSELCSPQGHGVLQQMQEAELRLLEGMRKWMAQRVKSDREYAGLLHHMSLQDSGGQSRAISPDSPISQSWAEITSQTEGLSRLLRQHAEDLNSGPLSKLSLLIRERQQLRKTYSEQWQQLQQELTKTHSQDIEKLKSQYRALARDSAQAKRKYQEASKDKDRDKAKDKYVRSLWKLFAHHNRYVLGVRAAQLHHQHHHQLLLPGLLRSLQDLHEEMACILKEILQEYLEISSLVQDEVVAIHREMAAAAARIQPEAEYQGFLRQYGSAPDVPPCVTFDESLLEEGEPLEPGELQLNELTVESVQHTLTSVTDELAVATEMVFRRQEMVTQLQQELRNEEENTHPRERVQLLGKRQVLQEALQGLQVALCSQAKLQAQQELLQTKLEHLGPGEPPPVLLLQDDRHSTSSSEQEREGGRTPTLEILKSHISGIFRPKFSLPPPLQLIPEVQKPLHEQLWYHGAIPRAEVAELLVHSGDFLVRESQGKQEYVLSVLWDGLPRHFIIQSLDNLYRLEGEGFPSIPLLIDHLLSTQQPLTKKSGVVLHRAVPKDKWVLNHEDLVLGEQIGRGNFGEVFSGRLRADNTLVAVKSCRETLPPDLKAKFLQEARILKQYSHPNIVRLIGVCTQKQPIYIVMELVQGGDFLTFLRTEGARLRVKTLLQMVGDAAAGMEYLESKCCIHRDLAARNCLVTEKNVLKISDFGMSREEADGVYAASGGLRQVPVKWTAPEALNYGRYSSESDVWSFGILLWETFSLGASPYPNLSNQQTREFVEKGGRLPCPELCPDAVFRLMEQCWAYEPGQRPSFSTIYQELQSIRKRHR
Chain of Jak2 (O60674 whole entry, looked up): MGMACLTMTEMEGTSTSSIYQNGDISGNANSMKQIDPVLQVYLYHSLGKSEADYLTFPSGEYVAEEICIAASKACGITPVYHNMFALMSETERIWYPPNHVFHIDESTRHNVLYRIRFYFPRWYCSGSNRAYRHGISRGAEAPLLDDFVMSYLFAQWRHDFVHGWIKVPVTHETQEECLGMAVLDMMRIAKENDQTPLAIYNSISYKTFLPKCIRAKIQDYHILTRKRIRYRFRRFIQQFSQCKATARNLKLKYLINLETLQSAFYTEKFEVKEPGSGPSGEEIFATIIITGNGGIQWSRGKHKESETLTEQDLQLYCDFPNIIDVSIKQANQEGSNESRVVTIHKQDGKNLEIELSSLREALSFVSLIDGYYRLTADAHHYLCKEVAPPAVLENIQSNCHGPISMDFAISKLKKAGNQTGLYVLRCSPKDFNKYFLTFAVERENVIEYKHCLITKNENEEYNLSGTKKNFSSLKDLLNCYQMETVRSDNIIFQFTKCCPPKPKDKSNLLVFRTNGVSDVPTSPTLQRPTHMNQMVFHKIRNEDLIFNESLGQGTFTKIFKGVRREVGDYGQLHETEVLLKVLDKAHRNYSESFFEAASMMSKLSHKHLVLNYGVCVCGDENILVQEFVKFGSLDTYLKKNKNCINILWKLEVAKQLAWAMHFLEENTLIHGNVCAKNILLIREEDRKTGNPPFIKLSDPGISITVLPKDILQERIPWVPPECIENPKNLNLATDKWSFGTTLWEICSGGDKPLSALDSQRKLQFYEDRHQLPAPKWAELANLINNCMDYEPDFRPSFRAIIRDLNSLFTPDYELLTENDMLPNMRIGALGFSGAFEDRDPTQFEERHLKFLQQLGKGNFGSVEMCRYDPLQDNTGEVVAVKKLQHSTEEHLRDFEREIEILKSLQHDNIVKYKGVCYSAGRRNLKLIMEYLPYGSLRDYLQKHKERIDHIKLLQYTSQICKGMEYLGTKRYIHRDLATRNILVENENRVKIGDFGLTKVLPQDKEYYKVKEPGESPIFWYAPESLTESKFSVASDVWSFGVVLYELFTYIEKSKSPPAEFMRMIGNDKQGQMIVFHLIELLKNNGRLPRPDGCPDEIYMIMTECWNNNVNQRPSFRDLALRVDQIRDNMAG
Chain of EPHB1 (P54762 whole entry, looked up): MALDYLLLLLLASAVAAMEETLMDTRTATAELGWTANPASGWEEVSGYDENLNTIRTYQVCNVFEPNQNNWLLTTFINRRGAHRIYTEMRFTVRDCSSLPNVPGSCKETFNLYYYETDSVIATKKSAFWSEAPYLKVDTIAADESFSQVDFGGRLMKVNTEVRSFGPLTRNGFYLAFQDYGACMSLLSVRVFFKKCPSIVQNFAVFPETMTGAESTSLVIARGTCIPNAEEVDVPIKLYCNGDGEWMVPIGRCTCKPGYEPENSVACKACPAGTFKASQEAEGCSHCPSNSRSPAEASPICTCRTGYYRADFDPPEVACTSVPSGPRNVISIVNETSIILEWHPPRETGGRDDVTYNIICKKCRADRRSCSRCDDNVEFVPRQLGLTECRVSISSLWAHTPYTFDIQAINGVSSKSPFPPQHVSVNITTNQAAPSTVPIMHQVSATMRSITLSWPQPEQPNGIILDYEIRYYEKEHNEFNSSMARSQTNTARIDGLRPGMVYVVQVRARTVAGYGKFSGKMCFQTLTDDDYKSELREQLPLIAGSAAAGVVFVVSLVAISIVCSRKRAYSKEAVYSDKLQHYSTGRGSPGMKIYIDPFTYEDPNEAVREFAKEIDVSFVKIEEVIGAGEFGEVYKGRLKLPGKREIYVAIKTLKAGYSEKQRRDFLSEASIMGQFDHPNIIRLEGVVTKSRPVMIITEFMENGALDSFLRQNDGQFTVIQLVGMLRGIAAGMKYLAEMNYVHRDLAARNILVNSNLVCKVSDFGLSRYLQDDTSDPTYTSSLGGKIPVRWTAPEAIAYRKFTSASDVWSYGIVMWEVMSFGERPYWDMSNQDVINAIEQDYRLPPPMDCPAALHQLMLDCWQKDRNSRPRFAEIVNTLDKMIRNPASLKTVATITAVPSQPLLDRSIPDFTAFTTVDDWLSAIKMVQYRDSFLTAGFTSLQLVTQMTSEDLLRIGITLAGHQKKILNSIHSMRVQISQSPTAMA
Chain of Fyn (P06241 whole entry, looked up): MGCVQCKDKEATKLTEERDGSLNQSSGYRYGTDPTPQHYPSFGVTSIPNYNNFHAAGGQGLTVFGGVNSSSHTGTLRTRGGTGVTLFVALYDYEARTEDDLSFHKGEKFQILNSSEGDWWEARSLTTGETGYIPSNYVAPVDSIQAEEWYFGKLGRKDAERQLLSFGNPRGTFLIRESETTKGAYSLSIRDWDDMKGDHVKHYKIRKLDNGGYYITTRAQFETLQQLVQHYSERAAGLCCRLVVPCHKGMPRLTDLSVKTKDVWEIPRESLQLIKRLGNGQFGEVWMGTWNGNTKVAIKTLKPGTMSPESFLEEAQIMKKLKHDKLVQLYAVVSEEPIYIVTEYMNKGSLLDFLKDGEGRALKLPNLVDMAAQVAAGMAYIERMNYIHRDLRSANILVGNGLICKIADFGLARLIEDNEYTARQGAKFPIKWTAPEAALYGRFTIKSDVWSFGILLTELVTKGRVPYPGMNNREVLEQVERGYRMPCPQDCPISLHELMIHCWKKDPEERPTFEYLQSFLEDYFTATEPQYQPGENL
Chain of Hck (P08631 whole entry, looked up): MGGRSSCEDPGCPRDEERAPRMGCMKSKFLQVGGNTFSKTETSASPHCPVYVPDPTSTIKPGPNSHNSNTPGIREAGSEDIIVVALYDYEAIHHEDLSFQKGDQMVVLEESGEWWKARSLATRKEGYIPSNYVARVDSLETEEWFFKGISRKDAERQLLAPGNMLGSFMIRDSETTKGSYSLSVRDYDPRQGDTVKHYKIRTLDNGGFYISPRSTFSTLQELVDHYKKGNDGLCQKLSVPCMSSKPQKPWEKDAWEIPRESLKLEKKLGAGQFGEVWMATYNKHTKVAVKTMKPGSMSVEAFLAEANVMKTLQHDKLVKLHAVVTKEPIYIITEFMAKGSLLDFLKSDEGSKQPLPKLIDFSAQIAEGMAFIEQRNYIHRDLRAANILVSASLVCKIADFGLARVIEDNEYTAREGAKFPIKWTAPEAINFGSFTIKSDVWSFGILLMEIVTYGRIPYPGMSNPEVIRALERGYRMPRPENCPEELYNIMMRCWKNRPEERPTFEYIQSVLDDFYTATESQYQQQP

| SH2 binding enrichment (c-Src SH2) | SH2 binding enrichment (Grb2 SH2) | SH2 binding enrichment (SHP2-C SH2) | Sequence | phosphorylation enrichment (EPHB2) | phosphorylation enrichment (Fyn) | phosphorylation enrichment (c-Abl (mouse)) | phosphorylation enrichment (AncSZ) | phosphorylation enrichment (FGFR3) | phosphorylation enrichment (Fes) | phosphorylation enrichment (MERTK) | phosphorylation enrichment (Hck) | phosphorylation enrichment (EPHB1) | phosphorylation enrichment (Jak2) | phosphorylation enrichment (c-Src) | phosphorylation enrichment (FGFR1) | phosphorylation enrichment (Fer (mouse)) |
| --- | --- | --- | --- | --- | --- | --- | --- | --- | --- | --- | --- | --- | --- | --- | --- | --- |
| 0.599 | 0.647 | 0.811 | FSQQTYFPVSN [ABCD1_Y180_R182P_YF] | 0.908 | 0.889 | 0.723 | 1.1 | 3.8 | 1.01 | 3.42 | 2.5 | 0.946 | 5.51 | 1.95 | 4.99 | 0.494 |
| 1.06 | 0.736 | 0.573 | CKSIHYDLVFL [COL22A1_Y37_V35I] | 0.755 | 0.574 | 0.936 | 1.49 | 0.895 | 1.55 | 1.51 | 0.686 | 0.751 | 1.36 | 0.562 | 0.651 | 8.93 |
| 0.493 | 0.749 | 0.759 | FGSVDYWEKFF [EEF1AKNMT_Y16] | 0.587 | 0.499 | 0.841 | 1.16 | 1.05 | 1.23 | 0.457 | 0.55 | 0.633 | 1.1 | 0.523 | 0.909 | 0.506 |
| 1.52 | 0.86 | 0.814 | TEQDPYNNIVC [MMUT_Y364_R369C] | 0.572 | 0.555 | 0.784 | 1.14 | 0.666 | 1.22 | 0.528 | 0.566 | 0.555 | 0.952 | 0.642 | 0.659 | 0.627 |
| 1.27 | 1.55 | 1.39 | TQRPHYKGGGG [TYROBP_Y112_Y111H] | 0.587 | 0.496 | 0.97 | 0.558 | 0.76 | 0.686 | 0.433 | 0.535 | 0.349 | 0.676 | 0.454 | 0.45 | 0.565 |
| 0.572 | 0.781 | 0.66 | NTFEKYLEEEF [TF_Y669_G671E_YF] | 0.61 | 0.389 | 0.692 | 1.25 | 0.754 | 1.26 | 0.426 | 0.497 | 0.6 | 1.17 | 0.495 | 0.407 | 0.551 |
| 0.467 | 0.95 | 0.735 | QNTGHYSSENT [TMEFF2_Y361_D364E] | 0.389 | 0.903 | 0.561 | 0.66 | 0.548 | 1.33 | 0.908 | 0.468 | 0.814 | 0.575 | 0.588 | 0.828 | 0.868 |
| 0.741 | 0.991 | 1.06 | KFLENYFDLEK [MMP3_Y41_K45E_YF] | 0.878 | 0.467 | 0.844 | 1.39 | 2.14 | 1.23 | 0.46 | 0.487 | 2.5 | 1.39 | 0.502 | 3.77 | 0.439 |
| 0.914 | 0.818 | 1.14 | LVQAEYWRDPI [PPT1_Y185_H187R] | 0.931 | 0.961 | 0.816 | 1.55 | 1.22 | 1.72 | 0.614 | 0.423 | 0.891 | 1.46 | 0.691 | 1.71 | 0.693 |
| 0.556 | 0.764 | 0.768 | DIMDLYNQPEL [IL36A_Y96_P101L] | 0.613 | 0.932 | 0.868 | 1.54 | 0.943 | 1.28 | 0.511 | 1.29 | 0.559 | 1.11 | 0.99 | 0.567 | 0.589 |
| 0.515 | 0.821 | 0.615 | EQMASYSGHSV [ITGA2B_Y319_F320S] | 0.363 | 0.449 | 0.493 | 0.496 | 0.406 | 0.543 | 0.337 | 0.488 | 0.298 | 0.736 | 0.37 | 0.384 | 0.734 |
| 3.87 | 0.987 | 1.4 | FPRTGYSVPFG [TGM1_Y370_L366P_YF] | 0.504 | 0.475 | 1.11 | 0.686 | 0.513 | 0.709 | 0.485 | 0.419 | 0.493 | 0.688 | 0.511 | 0.379 | 0.421 |
| 0.462 | 0.963 | 0.53 | HKANEYFPVVL [ADAMTS18_Y764_YF] | 1.5 | 0.807 | 0.628 | 0.872 | 4.38 | 0.896 | 0.528 | 0.533 | 0.951 | 1.83 | 0.556 | 8.42 | 0.736 |
| 0.655 | 0.889 | 0.554 | DELDKYSEALK [TPM1_Y60] | 0.577 | 0.443 | 0.676 | 1.19 | 0.59 | 1.03 | 0.395 | 0.489 | 0.469 | 0.977 | 0.422 | 0.451 | 0.472 |

The remaining lines, values behind:

| Sequence | SH2 binding enrichment (c-Src SH2) | SH2 binding enrichment (Grb2 SH2) | SH2 binding enrichment (SHP2-C SH2) | phosphorylation enrichment (EPHB2) | phosphorylation enrichment (Fyn) | phosphorylation enrichment (c-Abl (mouse)) | phosphorylation enrichment (AncSZ) | phosphorylation enrichment (FGFR3) | phosphorylation enrichment (Fes) | phosphorylation enrichment (MERTK) | phosphorylation enrichment (Hck) | phosphorylation enrichment (EPHB1) | phosphorylation enrichment (Jak2) | phosphorylation enrichment (c-Src) | phosphorylation enrichment (FGFR1) | phosphorylation enrichment (Fer (mouse)) |
| --- | --- | --- | --- | --- | --- | --- | --- | --- | --- | --- | --- | --- | --- | --- | --- | --- |
| ETAVHYIHDGI [GATD3A_Y250_L248V] | 0.504 | 0.678 | 0.465 | 0.43 | 0.389 | 0.606 | 0.631 | 0.543 | 0.726 | 0.453 | 0.399 | 0.419 | 0.649 | 0.461 | 0.445 | 0.426 |
| PQGVSYIFTID [DCX_Y103_R102S_YF] | 0.553 | 0.902 | 1.73 | 0.692 | 0.729 | 0.812 | 0.94 | 0.893 | 1.74 | 0.591 | 0.509 | 0.726 | 1.48 | 0.486 | 0.456 | 0.495 |
| LEYAKYGSLRG [RET_Y809_V804L] | 0.529 | 0.619 | 0.785 | 2.96 | 1.87 | 1.73 | 0.63 | 0.618 | 0.765 | 0.687 | 2.57 | 3.25 | 0.55 | 2.49 | 0.651 | 2.26 |
| AGEGSYALDSE [PES1_Y265_T264S] | 0.668 | 0.977 | 0.649 | 0.629 | 0.946 | 0.64 | 1.24 | 0.719 | 1.19 | 0.568 | 0.747 | 0.461 | 1.05 | 0.538 | 0.644 | 0.608 |
| GQRDLYSGLNE [CD3E_Y199_Q204E] | 0.724 | 0.878 | 0.64 | 1.3 | 4.4 | 0.566 | 1.23 | 0.653 | 0.89 | 2.58 | 9.08 | 1.12 | 0.716 | 5.28 | 0.555 | 1.94 |
| PYSNPYENSLI [EPOR_Y489] | 5.44 | 3.58 | 0.818 | 0.714 | 0.906 | 0.762 | 1.17 | 1.14 | 1.16 | 0.912 | 0.679 | 0.781 | 1.05 | 1.15 | 0.806 | 2.63 |
| WCSNDYLGMSR [ALAS2_Y199] | 0.642 | 0.895 | 0.773 | 0.752 | 0.551 | 0.6 | 1.85 | 1.25 | 0.845 | 0.398 | 0.781 | 0.959 | 3.41 | 0.843 | 1.57 | 0.5 |
| ASENVYVNTAH [CTSC_Y150_I153T] | 1.27 | 7.62 | 1.12 | 0.588 | 0.748 | 0.599 | 0.936 | 0.485 | 0.86 | 0.429 | 0.796 | 0.7 | 0.772 | 0.814 | 0.633 | 0.527 |
| AELVPYYMEHH [PTPN11_Y80_Q79P] | 1.19 | 0.963 | 1.49 | 0.635 | 0.626 | 0.733 | 0.916 | 0.792 | 0.995 | 0.552 | 0.736 | 0.778 | 0.757 | 1.28 | 0.822 | 0.513 |
| AEPPDYSPVTH [ADGRG2_Y285] | 0.477 | 0.836 | 0.611 | 0.582 | 0.542 | 0.792 | 1.66 | 0.786 | 1.06 | 0.491 | 0.598 | 0.817 | 0.836 | 0.417 | 0.54 | 0.764 |
| VATRWYPSPEL [CDKL5_Y177_R178P] | 0.907 | 1.23 | 0.794 | 0.517 | 0.439 | 0.696 | 0.891 | 0.541 | 0.953 | 0.522 | 0.504 | 0.577 | 0.763 | 0.473 | 0.437 | 0.289 |
| LKGQVYILGQE [ASS1_Y359_R363Q] | 0.539 | 1.17 | 0.761 | 0.848 | 0.816 | 1.77 | 1.84 | 1.26 | 2.47 | 0.843 | 1.07 | 1.09 | 1.98 | 1.28 | 0.939 | 0.802 |
| EARRVYGDIIH [ALDH5A1_Y175] | 0.445 | 0.977 | 0.561 | 0.378 | 0.514 | 0.596 | 0.608 | 0.447 | 0.707 | 0.408 | 0.42 | 0.41 | 0.517 | 0.499 | 0.426 | 0.477 |
| DRLAVYIDRVP [LMNA_Y45_R50P] | 0.471 | 0.756 | 0.912 | 0.719 | 0.429 | 0.654 | 1.09 | 0.731 | 1.09 | 0.331 | 0.468 | 0.682 | 0.911 | 0.329 | 0.451 | 0.437 |
| SDRNLYSKNLV [CFAP58_Y501] | 0.423 | 0.823 | 0.811 | 0.38 | 0.411 | 0.467 | 0.626 | 0.363 | 0.516 | 0.748 | 0.555 | 0.268 | 0.491 | 0.435 | 0.325 | 1.03 |
| LIGWRYDDPEV [HSPA9_Y128_R126W] | 3.68 | 1.01 | 1 | 0.859 | 0.538 | 0.652 | 0.984 | 0.607 | 1.24 | 0.451 | 0.471 | 0.544 | 1.17 | 0.43 | 0.419 | 0.416 |
| TSRVLYPNDNF [PYGM_Y281_I276T] | 0.643 | 0.922 | 0.771 | 0.424 | 0.456 | 0.51 | 0.64 | 0.436 | 0.7 | 0.408 | 0.558 | 0.456 | 0.638 | 0.415 | 0.545 | 0.432 |
| SEASGYQDNIA [DES_Y363] | 0.52 | 0.907 | 0.567 | 0.485 | 0.384 | 0.616 | 0.778 | 0.674 | 0.94 | 0.515 | 0.485 | 0.52 | 0.783 | 0.427 | 0.441 | 0.551 |
| RKKEEYKMAPF [F8_Y1990_L1994P_YF] | 0.407 | 1.06 | 0.905 | 0.261 | 0.558 | 0.371 | 0.574 | 0.446 | 0.623 | 0.422 | 0.373 | 0.299 | 0.316 | 0.469 | 0.602 | 0.346 |
